The target of assay [1] is gp41 of pNL4-3 (HIV-1 pNL4-3 (subtype B, CXCR4-tropic)).
Assay [2] deals with gp41 of mutant "D-I-A" (pNL-Bal with Glycine to Aspartic Acid at position 36 and Valine to Alanine at position 38 of gp41) (HIV-1 clone BAL2 (subtype B, CCR5-tropic)).
The target of assay [3] is gp41 of mutant "G-I-A" (pNL-Bal with Valine to Alanine at position 38 of gp41) (HIV-1 clone BAL2 (subtype B, CCR5-tropic)).
The target is the same in assay [4]. This is another data set of the same source.

As to T20 (Enfuvirtide, Fuzeon) (peptide), in assay [1], the IC50 (nM), inhibition of viral replication, deCIPhR cell to cell infection is 76 nM and the IC50 (nM), inhibition of viral replication, virus to cell infection was 48 nM. In assay [2], this substance came in with an IC50 (nM), inhibition of viral replication, deCIPhR of 2270 nM and a Rf (resistance factor, IC50 on mutant virus / IC50 on reference strain) of 227 fold. In assay [3], this substance displayed an IC50 (nM), inhibition of viral replication, deCIPhR of 127 nM and a Rf (resistance factor, IC50 on mutant virus / IC50 on reference strain) of 12.7 fold. The Resistance factor (IC50mut/IC50wt) IC50 fold increase in assay [4] worked out at 13 fold.

Values taken from US20160313325A1.
